T1: murine FcRn (murine, UniProt P01887 21-119, limits assumed)
T1 construct: the whole entry is named; also called mouse FcRn; muFcRn
T1 sequence: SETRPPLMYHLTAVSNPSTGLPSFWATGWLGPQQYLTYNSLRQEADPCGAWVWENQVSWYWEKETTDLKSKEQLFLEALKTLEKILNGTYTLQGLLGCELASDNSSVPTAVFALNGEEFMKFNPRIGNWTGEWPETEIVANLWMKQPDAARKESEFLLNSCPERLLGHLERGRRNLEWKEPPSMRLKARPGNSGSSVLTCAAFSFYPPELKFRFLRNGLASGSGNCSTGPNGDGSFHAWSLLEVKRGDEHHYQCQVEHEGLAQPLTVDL
T1 sequence (b2m): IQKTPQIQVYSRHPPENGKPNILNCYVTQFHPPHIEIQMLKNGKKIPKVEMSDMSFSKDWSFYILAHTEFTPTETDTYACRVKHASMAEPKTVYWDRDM

B1: human IgG1 MEDI-493 (SYNAGIS) G385R/Q386T/P387R/N389P (antibody)
heavy (part 1 of 2): QVTLRESGPALVKPTQTLTLTCTFSGFSLSTSGMSVGWIRQPPGKALEWLADIWWDDKKDYNPSLKSRLTISKDTSKNQVVLKVTNMDPADTATYYCARSMITNWYFDVWGAGTTVTVSS
heavy (part 2 of 2): EPKSCDKTHTCPPCPAPELLGGPSVFLFPPKPKDTLMISRTPEVTCVVVDVSHEDPEVKFNWYVDGVEVHNAKTKPREEQYNSTYRVVSVLTVLHQDWLNGKEYKCKVSNKALPAPIEKTISKAKGQPREPQVYTLPPSREEMTKNQVSLTCLVKGFYPSDIAVEWESNRTREPNYKTTPPVLDSDGSFFLYSKLTVDKSRWQQGNVFSCSVMHEALHNHYTQKSLSLSPGK
light: DIQMTQSPSTLSASVGDRVTITCKCQLSVGYMHWYQQKPGKAPKLLIYDTSKLASGVPSRFSGSGSGTEFTLTISSLQPDDFATYYCFQGSGYPFTFGGGTKLEIK
notes: HEK 293, protein A purified; not shown: human IgG1 heavy chain CH1 domain (between VH and hinge-Fc); human kappa light chain constant domain
B2: human IgG1 MEDI-493 (SYNAGIS) H433K/N434F/Y436H (antibody)
heavy (part 1 of 2): QVTLRESGPALVKPTQTLTLTCTFSGFSLSTSGMSVGWIRQPPGKALEWLADIWWDDKKDYNPSLKSRLTISKDTSKNQVVLKVTNMDPADTATYYCARSMITNWYFDVWGAGTTVTVSS
heavy (part 2 of 2): EPKSCDKTHTCPPCPAPELLGGPSVFLFPPKPKDTLMISRTPEVTCVVVDVSHEDPEVKFNWYVDGVEVHNAKTKPREEQYNSTYRVVSVLTVLHQDWLNGKEYKCKVSNKALPAPIEKTISKAKGQPREPQVYTLPPSREEMTKNQVSLTCLVKGFYPSDIAVEWESNGQPENNYKTTPPVLDSDGSFFLYSKLTVDKSRWQQGNVFSCSVMHEALKFHHTQKSLSLSPGK
light: DIQMTQSPSTLSASVGDRVTITCKCQLSVGYMHWYQQKPGKAPKLLIYDTSKLASGVPSRFSGSGSGTEFTLTISSLQPDDFATYYCFQGSGYPFTFGGGTKLEIK
notes: as for B1
B3: human IgG1 MEDI-493 (SYNAGIS) M252Y/T256Q (antibody)
heavy (part 1 of 2): QVTLRESGPALVKPTQTLTLTCTFSGFSLSTSGMSVGWIRQPPGKALEWLADIWWDDKKDYNPSLKSRLTISKDTSKNQVVLKVTNMDPADTATYYCARSMITNWYFDVWGAGTTVTVSS
heavy (part 2 of 2): not shown
light: DIQMTQSPSTLSASVGDRVTITCKCQLSVGYMHWYQQKPGKAPKLLIYDTSKLASGVPSRFSGSGSGTEFTLTISSLQPDDFATYYCFQGSGYPFTFGGGTKLEIK
notes: as for B1
B4: human IgG1 MEDI-493 (SYNAGIS) M252Y/S254T/T256E (antibody)
heavy (part 1 of 2): QVTLRESGPALVKPTQTLTLTCTFSGFSLSTSGMSVGWIRQPPGKALEWLADIWWDDKKDYNPSLKSRLTISKDTSKNQVVLKVTNMDPADTATYYCARSMITNWYFDVWGAGTTVTVSS
heavy (part 2 of 2): EPKSCDKTHTCPPCPAPELLGGPSVFLFPPKPKDTLYITREPEVTCVVVDVSHEDPEVKFNWYVDGVEVHNAKTKPREEQYNSTYRVVSVLTVLHQDWLNGKEYKCKVSNKALPAPIEKTISKAKGQPREPQVYTLPPSREEMTKNQVSLTCLVKGFYPSDIAVEWESNGQPENNYKTTPPVLDSDGSFFLYSKLTVDKSRWQQGNVFSCSVMHEALHNHYTQKSLSLSPGK
light: DIQMTQSPSTLSASVGDRVTITCKCQLSVGYMHWYQQKPGKAPKLLIYDTSKLASGVPSRFSGSGSGTEFTLTISSLQPDDFATYYCFQGSGYPFTFGGGTKLEIK
notes: HEK 293, protein A purified; also called IgG1/M252Y/S254T/T256E; not shown: human IgG1 heavy chain CH1 domain (between VH and hinge-Fc); human kappa light chain constant domain
B5: human IgG1 MEDI-493 (SYNAGIS) I253A (antibody)
heavy (part 1 of 2): QVTLRESGPALVKPTQTLTLTCTFSGFSLSTSGMSVGWIRQPPGKALEWLADIWWDDKKDYNPSLKSRLTISKDTSKNQVVLKVTNMDPADTATYYCARSMITNWYFDVWGAGTTVTVSS
heavy (part 2 of 2): not shown
light: DIQMTQSPSTLSASVGDRVTITCKCQLSVGYMHWYQQKPGKAPKLLIYDTSKLASGVPSRFSGSGSGTEFTLTISSLQPDDFATYYCFQGSGYPFTFGGGTKLEIK
notes: HEK 293, protein A purified; also called 1253A; not shown: human IgG1 heavy chain CH1 domain (between VH and hinge-Fc); human kappa light chain constant domain
B6: human IgG1 MEDI-493 (SYNAGIS) M252W (antibody)
heavy (part 1 of 2): QVTLRESGPALVKPTQTLTLTCTFSGFSLSTSGMSVGWIRQPPGKALEWLADIWWDDKKDYNPSLKSRLTISKDTSKNQVVLKVTNMDPADTATYYCARSMITNWYFDVWGAGTTVTVSS
heavy (part 2 of 2): not shown
light: DIQMTQSPSTLSASVGDRVTITCKCQLSVGYMHWYQQKPGKAPKLLIYDTSKLASGVPSRFSGSGSGTEFTLTISSLQPDDFATYYCFQGSGYPFTFGGGTKLEIK
notes: as for B1
B7: human IgG1 MEDI-493 (SYNAGIS) N434F/Y436H (antibody)
heavy (part 1 of 2): QVTLRESGPALVKPTQTLTLTCTFSGFSLSTSGMSVGWIRQPPGKALEWLADIWWDDKKDYNPSLKSRLTISKDTSKNQVVLKVTNMDPADTATYYCARSMITNWYFDVWGAGTTVTVSS
heavy (part 2 of 2): not shown
light: DIQMTQSPSTLSASVGDRVTITCKCQLSVGYMHWYQQKPGKAPKLLIYDTSKLASGVPSRFSGSGSGTEFTLTISSLQPDDFATYYCFQGSGYPFTFGGGTKLEIK
notes: as for B1

How the values were obtained:
human FcRn [1] = target: T2, human FcRn (human); assay: BIAcore SPR, equilibrium binding with Scatchard analysis, soluble human FcRn over immobilized IgG1, pH 6.0
T2 construct: mature; Soluble heterodimer from baculovirus-infected High-Five cells, purified on IgG Sepharose; also called recombinant human FcRn; the human receptor
T2 sequence (chain, as listed by the source limits assumed, chain 1 of 2): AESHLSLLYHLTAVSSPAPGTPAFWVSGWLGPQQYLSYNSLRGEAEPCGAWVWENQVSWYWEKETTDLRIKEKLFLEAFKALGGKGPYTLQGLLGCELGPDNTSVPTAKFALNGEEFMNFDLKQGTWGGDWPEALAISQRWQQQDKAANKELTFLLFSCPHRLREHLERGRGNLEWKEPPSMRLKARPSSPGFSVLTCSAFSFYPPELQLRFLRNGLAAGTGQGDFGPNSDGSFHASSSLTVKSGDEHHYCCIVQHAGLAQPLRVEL
T2 sequence (P61769 21-119 limits assumed, chain 2 of 2): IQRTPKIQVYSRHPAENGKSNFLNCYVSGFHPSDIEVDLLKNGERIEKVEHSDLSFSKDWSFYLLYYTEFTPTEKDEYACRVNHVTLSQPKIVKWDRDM
Procedure: (§1) The interaction of soluble murine and human FcRn with immobilized human IgG1 variants was monitored by surface plasmon resonance detection using a BIAcore 3000 instrument (Pharmacia Biosensor, Uppsala, Sweden). […] Protein concentrations were calculated by the bicinchoninic acid (BCA) method for both human and murine FcRn or using the 1% extinction coefficient at 280 m of 1.5 for IgG1 wild type and variants. The latter were coupled to the dextran matrix of a CM5 sensor chip (Pharmacia Biosensor) using an Amine Coupling Kit as described (Johnson et al., supra). The protein concentrations ranged from 3-5 μg/ml in 10 mM sodium acetate, pH 5.0. The activation period was set for 7 minutes at a flow rate of 10 μl/min and the immobilization period was set to between 10 and 20 minutes at a flow rate of 10 μl/min. Excess reactive esters were quenched by injection of 70 μl of 1.0 methanolamine hydrochloride, pH 8.5. […] Human and murine FcRn were buffer exchanged against 50 mM PBS buffer pH 6.0 containing 0.05% Tween 20. Dilutions were made in the same buffer. All binding experiments were performed at 25 C. with concentrations ranging from 120 to 1 μg/ml at a flow rate of 5 to 10 μl/min; data were collected for 25 to 50 minutes and three 1-minute pulses of PBS buffer pH 7.2 were used to regenerate the surfaces. FcRn was also flowed over an uncoated cell and the sensorgrams from these blank runs subtracted from those obtained with IgG1-coupled chips. Runs were analyzed using the software BIAevaluation 3.1 (Pharmacia). Association constants (KAS) were determined from Scatchard analysis by measuring the concentration of free reactants and complex at equilibrium after correction for nonspecific binding.

murine FcRn [2] = target: T1, murine FcRn; assay: BIAcore SPR, equilibrium binding with Scatchard analysis, soluble murine FcRn over immobilized IgG1, pH 6.0
Procedure: as §1

murine FcRn [3] = target: T1, murine FcRn; assay: BIAcore SPR, Scatchard analysis of FIG. 7A, murine FcRn 1 nM to 556 nM over 4000 RU of immobilized IgG1
Procedure: Runs were analyzed using the software BIAevaluation 3.1 (Pharmacia). Association constants (KAS) were determined from Scatchard analysis by measuring the concentration of free reactants and complex at equilibrium after correction for nonspecific binding. […] The concentration of free analyte (human or murine FcRn) is equal to the bulk analyte concentration since analyte is constantly replenished during sample injection. The concentration of free ligand on the surface of the sensor chip can be derived from the concentration of the complex and from the total binding capacity of the surface as KA=Req/C(Rmax-Req) where C is the free analyte concentration, Req is the steady-state response, and Rmax is the total surface binding capacity. Rearranging, the equation reads: Req/C=KA Rmax-KA Req.
In all cases, equilibrium (or near-equilibrium) binding levels were reached within 50 minutes. To estimate the increase in RU resulting from the non specific effect of protein on the bulk refractive index, binding of FcRn to an uncoated cell was measured and the sensorgrams from these blank runs subtracted from those obtained with IgG1-coupled chips.

human FcRn [4] = target: T2, human FcRn; assay: BIAcore SPR, soluble human FcRn over immobilized IgG1, pH 6.0
Procedure: (§2) The interaction of soluble murine and human FcRn with immobilized human IgG1 variants was monitored by surface plasmon resonance detection using a BIAcore 3000 instrument (Pharmacia Biosensor, Uppsala, Sweden). […] Protein concentrations were calculated by the bicinchoninic acid (BCA) method for both human and murine FcRn or using the 1% extinction coefficient at 280 m of 1.5 for IgG1 wild type and variants. The latter were coupled to the dextran matrix of a CM5 sensor chip (Pharmacia Biosensor) using an Amine Coupling Kit as described (Johnson et al., supra). The protein concentrations ranged from 3-5 μg/ml in 10 mM sodium acetate, pH 5.0. The activation period was set for 7 minutes at a flow rate of 10 μl/min and the immobilization period was set to between 10 and 20 minutes at a flow rate of 10 μl/min. Excess reactive esters were quenched by injection of 70 μl of 1.0 methanolamine hydrochloride, pH 8.5. […] Human and murine FcRn were buffer exchanged against 50 mM PBS buffer pH 6.0 containing 0.05% Tween 20. Dilutions were made in the same buffer. […] Runs were analyzed using the software BIAevaluation 3.1 (Pharmacia). Association constants (KAS) were determined from Scatchard analysis by measuring the concentration of free reactants and complex at equilibrium after correction for nonspecific binding.

murine FcRn [5] = target: T1, murine FcRn; assay: BIAcore SPR, soluble murine FcRn over immobilized IgG1, pH 6.0
Procedure: as §2

Row | Binder | ΔΔG (ΔG wild type - ΔG mutant) (human FcRn [1]) | Kd (murine FcRn [2]) | ΔΔG (ΔG wild type - ΔG mutant) (murine FcRn [2]) | Kd (murine FcRn [3]) | binding result (human FcRn [4]) | binding result (murine FcRn [5])
1 | B1 | 0.3 kcal/mol |  |  |  |  | 
2 | B2 | 1.1 kcal/mol | 14 nM | 1.8 kcal/mol |  |  | 
3 | B3 | 0.9 kcal/mol |  |  |  |  | 
4 | B4 | 1.4 kcal/mol | 27 nM | 1.4 kcal/mol | 24 nM |  | 
5 | B5 |  |  |  |  | no binding (tested: FcRn 1 to 120 µg/ml) | no binding (tested: FcRn 1 to 120 µg/ml)
6 | B6 | 1.1 kcal/mol | 30 nM | 1.3 kcal/mol |  |  | 
7 | B7 | 1 kcal/mol | 9 nM | 2 kcal/mol |  |  | 
